Reference: US20240317834A1, “COMPOSITIONS AND METHODS FOR NEUROLOGICAL DISEASES” (CODA BIOTHERAPEUTICS, INC., priority 2020, published 2024)

System: Lenti-X 293T cells
Assay: YFP fluorescence quenching anion reporter plate reader assay of engineered receptors stimulated with acetylcholine or a non-native ligand
Type: cell-based
Description: To screen these mutant LGICs for those having novel response profiles to ligands, an anion reporter assay was developed to assess the function of the LGICs in a high throughput format. In this assay, cells expressing a YFP reporter whose fluorescence is quenched in the presence of anion are transfected with DNA encoding the channel of interest. Upon exposure to ligand, channels that are activated will flux anion, resulting in a dose-dependent quench of the YFP that can be detected on a plate reader. The greater the quench signal (i.e., the more positive the value), the higher the ligand activity on the receptor is.
Lenti-X 293T cells (LX293T, Clontech) were maintained in DMEM containing 10% FBS and 1% penicillin/streptomycin (Invitrogen). […] Two days before assay, cells were split at a density of 20,000 cells/well in a 96-well tissue culture plate coated with poly-d lysine (Thermo Scientific). The next day, the cells were transiently transfected with 0.1 μg of DNA per well using standard Fugene protocol (Promega). On the day of assay, cells were washed 2 times in 1× extracellular solution (1×ECS: 140 mM NaCl, 5 mM KCl, 1 mM MgCl2, 2 mM CaCl2), 10 mM HEPES, 10 mM glucose, pH 7.2, mOsms 300). After the last wash, 100 μL of 1×ECS was added to the wells and the plate was incubated at 37° C. for 30 min. While incubating the plate, the drugs were diluted to a 2× concentration in 1×ECS-NaI (same components as 1×ECS except the 140 mM NaCl was replaced by 140 mM NaI). The plates were then read on a Flexstation3 (Molecular Devices). Each well, 8 wells at a time, of the plate is read for 2 min using a Flexstation3 (Molecular Devices) as follows: 1) a baseline YFP fluorescence is read for 17 sec, 2) 100 μL of ligand is added, and 3) the changes in YFP fluorescence are then measured every 1.3 sec for 1 minute and 43 seconds. The percent quench is calculated from the average fluorescence of the last 10 seconds of the read divided by the baseline average of the first 15 seconds prior to the ligand addition.
FIGS. 1A-1J provide heat maps of the percent quench of YFP fluorescence following stimulation by various doses of either acetylcholine or the non-native ligand as indicated in the Figures. CODA71 (SEQ ID NO: 33) was used as a control, and CODA75 (SEQ ID NO: 29, a non-responding chimeric engineered receptor) was used as the negative control. Quenching of the fluorescence signal, as indicated by blue shaded cells, indicate the level of engineered receptor activation by the non-native ligand at that concentration.

B1: CODA330: engineered chimeric LGIC receptor, L131F in SEQ ID NO: 33 (protein)
chain: MRCSPGGVWLALAASLLHVSLQGEFQRKLYKELVKNYNPLERPVANDSQPLTVYFSLSLLQIMDVDEKNQVLTTNIWLQMSWTDHYLQWNVSEYPGVKTVRFPDGQIWKPDILLYNSADERFDATFHTNVFVNSSGHCQYLPPGIFKSSCPMDLKNFPMDVQTCKLKFGSWSYGGWSLDLQMQEADISGYIPNGEWDLVGIPGKRSERFYECCKEPYPDVTFTVTMRRRMGYYLIQMYIPSLLIVILSWISFWINMDAAPARVGLGITTVLTMTTQSSGSRASLPKVSYVKAIDIWMAVCLLFVFSALLEYAAVNFVSRQHKELLRFRRKRRHHKSPMLNLFQEDEAGEGRFNFSAYGMGPACLQAKDGISVKGANNSNTTNPPPAPSKSPEEMRKLFIQRAKKIDKISRIGFPMAFLIFNMFYWIIYKIVRREDVHNQ
modifications: synthetic sequence of chimeric LGIC
Question: Which “YFP fluorescence quenching using CNL001” value (1 nM CNL001, first column) does the source give for B1 here?
Answer: 76.289%

Question: And the “YFP fluorescence quenching using CNL001” value (1 nM CNL001, second column)?
Answer: 78.896%

Question: What about the “YFP fluorescence quenching using TC-5619/Bradanicline” value (1 nM brd) of the same molecule?
Answer: −12.4%

Question: And the “YFP fluorescence quenching using TC-5619/Bradanicline” value (3 nM brd)?
Answer: 25.12%

Question: What about the “YFP fluorescence quenching using Varenicline” value (3 nM var, first column) of the same molecule?
Answer: −3.016

Question: And the “YFP fluorescence quenching using Varenicline” value (3 nM var, second column)?
Answer: −1.452

Question: What about the “YFP fluorescence quenching using CNL001” value (10 nM CNL001, first column) of the same molecule?
Answer: 79.339%

Question: And the “YFP fluorescence quenching using CNL001” value (10 nM CNL001, second column)?
Answer: 80.245%

Question: And the “YFP fluorescence quenching using TC-5619/Bradanicline” value (10 nM brd)?
Answer: 72.19%

Question: What about the “YFP fluorescence quenching using TC-5619/Bradanicline” value (30 nM brd) of the same molecule?
Answer: 76.35%

Question: What about the “YFP fluorescence quenching using Facinicline” value (30 nM fac) of the same molecule?
Answer: 2.9

Question: What about the “YFP fluorescence quenching using Varenicline” value (30 nM var, first column) of the same molecule?
Answer: −0.193

Question: And the “YFP fluorescence quenching using Varenicline” value (30 nM var, second column)?
Answer: −1.853

Question: What about the “YFP fluorescence quenching using CNL001” value (50 nM CNL001, first column) of the same molecule?
Answer: 80.831%

Question: And the “YFP fluorescence quenching using CNL001” value (50 nM CNL001, second column)?
Answer: 80.605%

Question: What about the “YFP fluorescence quenching using ABT-126” value (50 nM abt) of the same molecule?
Answer: −16.22%

Question: And the “YFP fluorescence quenching using CNL001” value (100 nM CNL001, first column)?
Answer: 81%

Question: What about the “YFP fluorescence quenching using CNL001” value (100 nM CNL001, second column) of the same molecule?
Answer: 80.663%

Question: What about the “YFP fluorescence quenching using CNL002” value (100 nM CNL002) of the same molecule?
Answer: −3.76%

Question: What about the “YFP fluorescence quenching using ABT-126” value (100 nM abt) of the same molecule?
Answer: −11.89%

Question: And the “YFP fluorescence quenching using AZD-0328” value (100 nM azd0328)?
Answer: 27.56%

Question: And the “YFP fluorescence quenching using TC-5619/Bradanicline” value (100 nM brd)?
Answer: 78.94%

Question: What about the “YFP fluorescence quenching using ABT-126” value (300 nM abt) of the same molecule?
Answer: 39.23%

Question: And the “YFP fluorescence quenching using AZD-0328” value (300 nM azd0328)?
Answer: 73.35%

Question: And the “YFP fluorescence quenching using TC-5619/Bradanicline” value (300 nM brd)?
Answer: 77.06%

Question: What about the “YFP fluorescence quenching using Facinicline” value (300 nM fac) of the same molecule?
Answer: 74.96

Question: And the “YFP fluorescence quenching using Varenicline” value (300 nM var, first column)?
Answer: 6.915

Question: And the “YFP fluorescence quenching using Varenicline” value (300 nM var, second column)?
Answer: 6.513

Question: And the “YFP fluorescence quenching using Varenicline” value (500 nM var, first column)?
Answer: 27.593

Question: And the “YFP fluorescence quenching using Varenicline” value (500 nM var, second column)?
Answer: 29.863

Question: And the “YFP fluorescence quenching using CNL001” value (1 uM CNL001, first column)?
Answer: 81.293%

Question: What about the “YFP fluorescence quenching using CNL001” value (1 uM CNL001, second column) of the same molecule?
Answer: 81.428%

Question: What about the “YFP fluorescence quenching using CNL002” value (1 uM CNL002) of the same molecule?
Answer: 68.51%

Question: And the “YFP fluorescence quenching using ABT-126” value (1 uM abt)?
Answer: 66.5%

Question: What about the “YFP fluorescence quenching using TC-5619/Bradanicline” value (1 uM brd) of the same molecule?
Answer: 78.61%

Question: And the “YFP fluorescence quenching using TC-6987” value (1 uM tc6987)?
Answer: 53.37

Question: What about the “YFP fluorescence quenching using Varenicline” value (1 uM var, first column) of the same molecule?
Answer: 67.499

Question: And the “YFP fluorescence quenching using Varenicline” value (1 uM var, second column)?
Answer: 65.57

Question: And the “YFP fluorescence quenching using Facinicline” value (10 uM fac)?
Answer: 81.97

Question: What about the “YFP fluorescence quenching using TC-6987” value (10 uM tc6987) of the same molecule?
Answer: 74.23

Question: And the “YFP fluorescence quenching using CNL002” value (30 uM CNL002)?
Answer: 77.77%

Question: What about the “YFP fluorescence quenching using AZD-0328” value (30 uM azd0328) of the same molecule?
Answer: 77.14%

Question: And the “YFP fluorescence quenching using Facinicline” value (30 uM fac)?
Answer: 78.31

Question: What about the “YFP fluorescence quenching using TC-6987” value (500 uM tc6987) of the same molecule?
Answer: 72.25

Question: What about the “percent quench of YFP fluorescence, 30 nM TC-6683” value (TC-6683 30 nM) of the same molecule?
Answer: −22.26%

Question: And the “percent quench of YFP fluorescence, 300 nM TC-6683” value (TC-6683 300 nM)?
Answer: −18.89%

Question: And the “percent quench of YFP fluorescence, 3 uM TC-6683” value (TC-6683 3 uM)?
Answer: −9.45%

Question: And the “percent quench of YFP fluorescence, 30 uM TC-6683” value (TC-6683 30 uM)?
Answer: −9.23%

Question: What about the “percent quench of YFP fluorescence, 100 uM TC-6683” value (TC-6683 100 uM) of the same molecule?
Answer: −10.75%

Question: And the “percent quench of YFP fluorescence, 10 uM ach” value (acetylcholine 10 uM)?
Answer: 11.07%

Question: What about the “percent quench of YFP fluorescence, 100 uM ach” value (acetylcholine 100 uM) of the same molecule?
Answer: 43.34%

Question: And the “percent quench of YFP fluorescence, 1 mM ach” value (acetylcholine 1 mM)?
Answer: 77.52%

Question: What about the “percent quench of YFP fluorescence, 3 mM ach” value (acetylcholine 3 mM) of the same molecule?
Answer: 74.89%
